Measurements published in patent publication US20110008279A1, “Methods and Compositions Relating to Adhesins as Adjuvants” (priority 2005, published 2011).
Where “and” joins values, the source holds several entries; their conditions need not be identical. Equal values may be shown once. Read-outs that look alike come from different tables or passages of the source.

Columns and labels:
[1] = target: specific NadA binding sites on monocytes (human)
[2] = target: high affinity binding sites for NadA on immature mo-DCs (human); test: flow cytometry of Alexa-NadA on mo-DCs, Scatchard plot
[3] = target: low affinity binding sites for NadA on immature mo-DCs (human); test: as above
[4] = target: high affinity binding sites for NadA on immature mo-DCs (human); test: flow cytometry of Alexa-NadA on mo-DCs, Scatchard analysis
[5] = target: low affinity binding sites for NadA on immature mo-DCs (human); test: as above
[6] = target: specific NadA binding sites on monocytes (human); test: NadA-I125 binding to monocytes, Scatchard plot; value counted on the homo-trimer
[7] = target: NadA-specific binding sites on macrophage (human); test: flow cytometry (MFI), Alexa-NadA displaced by unlabelled NadA on macrophages, 37° C
mo-DCs [8] = test: Expression of maturation markers on mo-DCs (flow cytometry); assay type: cell-based, human; details: flagellin 10 μg/ml; for CD86 expression: LPS 0.1 μg/ml
Experimental: Reagents used were tested for low endotoxin contamination using the Limulus amoebocyte assay (Sigma). Dendritic cells were generated from human peripheral blood mononuclear cells (PBMC) as described previously. In brief, PBMC were isolated from buffy coats of healthy donors by Ficoll-Paque Plus density gradient centrifugation (Amersham Pharmacia Biotech AB). Separate monocyte and T-cell fractions were obtained from PBMCs by Percoll density gradient centrifugation (Amersham Pharmacia Biotech AB). […] DC were obtained by 6-d culture adherent monocytes in medium with 20 ng/ml IL-4 (5×10^6 units/mg, Peprotech) and 50 ng/ml GM-CSF (1×10^7 units/mg, Peprotech). Cytokines were added again on day 4 in RPMI-1640 medium supplemented with 10% FBS. […] After 24 h cells were harvested and analysed. Culture supernatants were collected frozen in liquid nitrogen and conserved at −80° C. for cytokine analysis.
After differentiation, DC were routinely stained with phycoerytrin conjugated monoclonal antibodies to human CD14, CD1a, CD83, CD86 (B7.2), CD80 (B7.1), MHC II (HLA-DR), purchased from BD-Pharminghen and Caltag. In parallel, cells were stained with the isotype matched control mAb. Cells were immunostained with the proper dilution of PE-conjugated anti human monoclonal antibodies at 4° C. for 30 min in 100 μl of phosphate-buffered saline pH 7.2 (PBS, GIBCO BRL) containing 1% FBS and 0.1% NaN3 (FACS buffer). After washing, propidium iodide was added to exclude dead cells and cell fluorescence intensities of the gated populations were measured with a EPICS XL-MCL (Coulter) flow cytometer and analyzed with EXPO 32ADC XL 3COLOR or WinMDI 2.8. software. Data were collected on 10000-20000 events.

mo-DCs [9] = test: Cytokine and chemokine secretion by mo-DCs (Bio-Plex, ELISA); assay type: cell-based, human; details: after IFN-γ priming; flagellin 10 μg/ml, CpG 10 μg/ml, maximal LPS
Experimental: Reagents used were tested for low endotoxin contamination using the Limulus amoebocyte assay (Sigma). Dendritic cells were generated from human peripheral blood mononuclear cells (PBMC) as described previously. In brief, PBMC were isolated from buffy coats of healthy donors by Ficoll-Paque Plus density gradient centrifugation (Amersham Pharmacia Biotech AB). Separate monocyte and T-cell fractions were obtained from PBMCs by Percoll density gradient centrifugation (Amersham Pharmacia Biotech AB). Residual T and B cells were removed from monocyte fraction by plastic adherence of 3×10^6 cells per well in 6-well plates (Costar) resulting in CD14^+ monocyte populations of >95% purity (determined by flow cytometry). DC were obtained by 6-d culture adherent monocytes in medium with 20 ng/ml IL-4 (5×10^6 units/mg, Peprotech) and 50 ng/ml GM-CSF (1×10^7 units/mg, Peprotech). Cytokines were added again on day 4 in RPMI-1640 medium supplemented with 10% FBS. Following this procedure more than 90% cells belonged to the immature DC phenotype (CD1a^+, HLADRlow, CD14^−, CD83^−, CD86^low, CD80^low). On day 5 cells were treated with nothing or with recombinant human IFN-γ (1000 U/ml) for 18 h before stimulation with NadA (0.0375-5 μM) or LPS (1 μg/ml). After 24 h cells were harvested and analysed. Culture supernatants were collected frozen in liquid nitrogen and conserved at −80° C. for cytokine analysis.
The antibody pairs used, directed against different non-competing epitopes of a given cytokine, were purchased from BioRad. Calibration curves from recombinant cytokine standard were prepared with four-fold dilution steps in RPMI-1640 medium containing 10% FBS. Assays were carried out in 96-well sterile pre-wetted filter plates at room temperature and protected from light. A mixture containing 5000 microspheres per cytokine was incubated together with standard or sample in a final volume of 50 μl for 30 min, under continuous shaking (300 rpm). After three washes by vacuum filtration with Bio-Plex washing buffer a cocktail of biotinylated antibodies diluted in Bio-Plex detection antibody diluent was added (25 μl to each well). After a 30 minutes incubation and washing, Streptavidin-PE diluted in Bio-Plex Assay buffer was added (50 μl per well). At the end of 10 minutes incubation under continuous shaking and after washing the fluorescence intensity of the beads was measured in a final volume of 125 μl of Bio-Plex assay buffer. Data analysis was done with Bio-Plex Manager software using a five-parametric-curve fitting. The detection limits were […].
IL12(p40) was measured by capture enzyme-linked immunosorbent assay (ELISA) with antibody pairs and cytokine standard purchased from Bender MedSystems. The concentrations of IL12(p40) in the cell-free supernatants were determined with ELISA kits according to the manufacturer's instructions. The detection limit of the assays was […].

mo-DCs [10] = test: as above; assay type: cell-based, human; details: even after IFN-γ priming; flagellin, LPS 100 μg/ml (so in the source)

Substance | Kd [1] [nM] | decrease of the signal with 5 uM unlabelled NadA [1] [%] | Kd [2] [nM] | fraction of binding sites [2] | Kd [3] | fraction of binding sites [3] [%] | Kd [4] [nM] | Kd [5] [nM] | Kd [6] [nM] | decrease of the signal with unlabelled NadA [7] [%] | CD86 expression on co-stimulation with R-848 (mo-DCs [8]; R-848 1 μM, after IFN-γ priming, NadA 1.5 μM) | CD86 expression (mo-DCs [8]; after IFN-γ priming, CpG up to 10 μg/ml) | CD86 expression (mo-DCs [8]; no IFN-γ priming) | IL-12(p70) secretion (mo-DCs [9]) | IL-12 secretion with R-848 co-stimulation (mo-DCs [10])
NadAΔ351-405 (from UniProt P0DV44 24-350) | 3000 | -50 | 50 to 100 | 30% and 20% | 3000 nM and 5000 nM | 70 to 80 | 90 | 4000 | 1000 | -50 | – | – | – | – | –
flagellin [reference compound] | – | – | – | – | – | – | – | – | – | – | not further increased | comparable to that induced by NadA 1.5 μM | significant increase | comparable to that induced by both 0.25 μM (9 μg/ml) and 1.5 μM (50 μg/ml) NadA | ineffective
